From the nanobody polyreactivity screen of Harvey et al. (2022)

Assay: yeast display, Sf9 membrane polyspecificity reagent, FACS + sequencing; frameworks hold sequencing errors
Procedure, shortened: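 A nanobody's polyreactivity label depends on the gate it was sorted from. Yeast display cells were stained with 10% biotinylated, detergent-solubilized Sf9 membrane reagent for 1 hour at 4 °C, enriched on streptavidin microbeads and sorted by FACS. The low and high (top ~1%) gates were set on anti-HA fluorescence for expression and streptavidin fluorescence for reagent binding.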

Sequence | polyreactivity (PSR sort gate)
QVQLVESGGGLVQAGGSLRLSCAASGRIFARNAMGWSRQAPGKERELVAAISGGGNTYADSVKGRFTISRDNAKNTVYLQMNSLKPEDTAVYYCARVVHFRGVRYDYWGQGTQVTVSS | high polyreactivity
QVQLVESGGGLVQAGGSLRLSCAASGFTFKYYAMGWYREAPGKERELVAAISLTGGSTYYADSVKGRFTISRDNAKNTVYFQMHSLIPEDTAVNYCNAVQGRQRGWEGPYGYWGQGTQVTVST | high polyreactivity
QVQLVESGGGLVQAGGSLRLSCAASGFIFDPYAMGWYRQAPGKERELVASINTRGDRTSYADSVKGRFTISRDNAKNTVYLQMNSLKPEDTAVYYCNADAVDQVGPDDDYWGQGTQVTVSS | low polyreactivity
QVQLVESGGGLVQAGGSLRLSCAASGLIFNIYAMGWYRQAPGKERELVAAISKSGGSTYYADSVKGRFTISRDNAKNTVYLQMNSLKPEDTAVYYCAAPYLVRSQRYYYWGQGTQVTVSS | high polyreactivity
QVHLVESGGGLVQAGGSLRLSCAASGSTFLLNAMGWYRQATGKERELVAGITGSGGRTYYADSVKGRFTISRDNAKNTVYLQMNSLKPEDTAVYYCAAYRNLYWYQHEYWGQGTLVTVSS | low polyreactivity
QVQLVESGGGLVQAGGSLRLSCAASGRIFYRYAMGWYRQAPGKERELVAAISRNGGSTNYADSVKGRFTISRDNAKNTVYLQMNSLKPEDTAVYYCAARPPTTRPYDYDYWGQGTQVTVSS | high polyreactivity
QVQLVESGGGLVQAGGSLRLSCAASGSTFHYYAMGWYRQAPGKERELVAAIRTSGGSTYYADSVKGRFTISRDNAKNTVYLQMNSLKPEDTAVYYCNRVLGYPYGVDYWGQGTQVTVSS | high polyreactivity
QVQLVESGGGLVQAGGILRLSCAASGRTFNSYAMGWYRQAPGKERELVAAISWIGGSTYYADSVKGRFTISRDNAKNTVYLQMNSLKPEDTAVYYCAADSYRFYSGYYYWGQGTQVTVSS | low polyreactivity
QVQLIESGGGLVQAGGSLRLSCAASGRTFKRYAMGWYRQAPGKERELVARITYSGARTYYADSVKGRFTISRDNAKNTVYLQMNSLKPEDTAVYYCAAQQYWTSQYFRSATFDYWGQGTQVTVSS | high polyreactivity
QVQLVESGGGLVQAGGSLRLSCAASGSTFRQYAMGWYRQAPGKERELVAAINWSGSSTYYADSVKGRFTISRDNAKNTVYLQMNSLKPDDTAVYYCAAVVQYWWWKGRGYWGQGTQVTVSS | high polyreactivity
QVQLVESGGGLVQAGGSLRLSCAASGFTFALYTMGSYRQAPGKERELVAAIRSTGSTYADSVKGRFTISRDNAKNTVYLQMNSLKPEDTAVYYCAAQYWRRKKYYYWGQGTQVTVSS | high polyreactivity
QVQLVESGGGLVQAGGSLRLSCAASGSIFPQYAMGWYRQAPGKERELVAVISWSGGRTYYADSVKGRFTISRDNAKNTVYLQMNSLKPEDTAVYYCAAKYWYQRYPQSSYTRYYWGQGTQVTVSS | high polyreactivity
QVQLVESGGGLFQAGGSLRLSCAASGSTFPYNAMGWYRQAPGKERELVAAITWRAGRTYYADSVKGRFTISRDNAKNTVYLQMNSLKPEDTAVYSCAKSYQRGVNHYEYWGQGTQVTVSS | high polyreactivity
QVQLVESGGGLVQAGGSLRLSCAASGSTFNYYDMGWYRQAPGKERELVATITSRGRSTYYADSVKGRFTISRDNAKNTVYLQMNSLKPVDTAVYYCAADWRAYIRRAAYSPFDYWGQGTQVTVSS | low polyreactivity
QVQLVESGGGLVQAGGSLRLSCAASGSIFVTYAMGWYRQAPGKERELVAVITWGGGSTYYADSVKGRFTISRDNAKNTVYLQMNSLKQEDTAVYYCAKDAFFTEIAIRDHIISHHYYWGQGTQVTVSS | low polyreactivity
QVQLLESGGGLVQAGGSLRLSCAASGLTIKQYAMGWYRQAPGKESELVAAISKSGGRTYYADSVKGRFTISRDNAKNTVYLQMNSLKPEDTAVYYCNARAGQRQGWEYDYWGQGTQVTVSS | high polyreactivity
QVQLVESGGGLVQAGGSLRLSCAASGSTFNGYTMGWYRQAPGKERELVAAISKSGGRTYYADSVKGRFTISRDNAKNTVYLQMNSLKPEDTAVYYCAAHFRALGIYYTYDYWGQGTQVTVSS | high polyreactivity
